The labels stand for the following.
B1: DnaJ homolog subfamily C member 2, residues 451 to 503; numbered along this chain, Q99543 (parent)
chain: SKNWSEDDLQLLIKAVNLFPAGTNSRWEVIANYMNIHSSSGVKRTAKDVIGKA

± gives the uncertainty stated by the source.

In this series the parent is B1. The series is described as follows: abundance fitness (aPCA) (normalised: wild type 0, dead -1); higher = more abundant; growth selection in yeast, the domain comes from the species named. To be noted: Homo sapiens.
As for SKNWSEDDLQLLIKAVNLFPAGTNSRWEVIANYMNIHSSSGVKRTAKDVIFKA [G51F], the abundance fitness was -0.136 ± 0.094.
The same measure for SKNWSEDDLQLLIKAVNLFPAGTNSRWEVIANYMNIHSSSGVKRTAKDVIMKA [G51M]: -0.106 ± 0.084.
The same measure for SKNWSEDDLQLLIKAVNLFPAGTNSRWEVIANYMNIHSSSGVKRTAKDVIDKA [G51D]: 0.063 ± 0.062.
The same measure for SKNWSEDDLQLLIKAVNLFPAGTNSRWEVIANYMNIHSSSGVKRTAKDVIEKA [G51E]: 0.016 ± 0.084; for SKNWSEDDLQLLIKAVNLFPAGTNSRWEVIANYMNIHSSSGVKRTAKNVIGKA [D48N]: -0.623 ± 0.068; for SKNWSEDDLQLLIKAVNLFPAGTNSRWEVIANYMNIHSSSGVKRTAKEVIGKA [D48E]: 0.042 ± 0.084.
Consider SKNWSEDDLQLLIKAVNLFPAGTNSRWEVIANYMNIHSSSGVKRTAKPVIGKA [D48P], for which the abundance fitness was -1.01 ± 0.12.
For the variant SKNWSEDDLQLLIKAVNLFPAGTNSRWEVIANYMNIHSSSGVKRTAKTVIGKA [D48T], the abundance fitness was -0.563 ± 0.1.
The same measure for SKNWSEDDLQLLIKAVNLFPAGTNSRWEVIANYMNIHSSSGVKRTAKYVIGKA [D48Y]: -1.04 ± 0.19.
SKNWSEDDLQLLIKAVNLFPAGTNSRWEVIANYMNIHSSSGVKRTAKVVIGKA [D48V]: the abundance fitness is -0.759 ± 0.074.
As to SKNWSEDDLQLLIKAVNLFPAGTNSRWEVIANYMNIHSSSGVKRTAKKVIGKA [D48K], the abundance fitness was -0.973 ± 0.16.
For SKNWSEDDLQLLIKAVNLFPAGTNSRWEVIANYMNIHSSSGVKRTAKRVIGKA [D48R], the abundance fitness is -0.708 ± 0.066.
For the variant SKNWSEDDLQLLIKAVNLFPAGTNSRWEVIANYMNIHSSSGVKRTAKLVIGKA [D48L], the abundance fitness is -0.838 ± 0.085.
For the variant SKNWSEDDLQLLIKAVNLFPAGTNSRWEVIANYMNIHSSSGVKRTAKCVIGKA [D48C], the abundance fitness was -0.393 ± 0.1.
The same measure for SKNWSEDDLQLLIKAVNLFPAGTNSRWEVIANYMNIHSSSGVKRTAKAVIGKA [D48A]: -0.262 ± 0.071; for SKNWSEDDLQLLIKAVNLFPAGTNSRWEVIANYMNIHSSSGVKRTAKSVIGKA [D48S]: -0.212 ± 0.067; for SKNWSEDDLQLLIKAVNLFPAGTNSRWEVIANYMNIHSSSGVKRTAKQVIGKA [D48Q]: -0.105 ± 0.1.
With SKNWSEDDLQLLIKAVNLFPAGTNSRWEVIANYMNIHSSSGVKRTAKMVIGKA [D48M], the abundance fitness was -0.396 ± 0.095.
The same measure for SKNWSEDDLQLLIKAVNLFPAGTNSRWEVIANYMNIHSSSGVKRTAKFVIGKA [D48F]: -1.06 ± 0.18.
Regarding SKNWSEDDLQLLIKAVNLFPAGTNSRWEVIANYMNIHSSSGVKRTAKHVIGKA [D48H], the abundance fitness was -0.539 ± 0.1.
In the case of SKNWSEDDLQLLIKAVNLFPAGTNSRWEVIANYMNIHSSSGVKRTAKWVIGKA [D48W], the abundance fitness is -0.845 ± 0.1.
As to SKNWSEDDLQLLIKAVNLFPAGTNSRWEVIANYMNIHSSSGVKRTAKGVIGKA [D48G], the abundance fitness was -0.554 ± 0.067.
The same measure for SKNWSEDDLQLLIKAVNLFPAGTNSRWEVIANYMNIHSSSGVKRTAKDVCGKA [I50C]: -0.228 ± 0.11; for SKNWSEDDLQLLIKAVNLFPAGTNSRWEVIANYMNIHSSSGVKRTAKDVHGKA [I50H]: -0.146 ± 0.1.
The same measure for SKNWSEDDLQLLIKAVNLFPAGTNSRWEVIANYMNIHSSSGVKRTAKDVLGKA [I50L]: -0.06 ± 0.061; for SKNWSEDDLQLLIKAVNLFPAGTNSRWEVIANYMNIHSSSGVKRTAKDVEGKA [I50E]: 0.095 ± 0.095; for SKNWSEDDLQLLIKAVNLFPAGTNSRWEVIANYMNIHSSSGVKRTAKDVYGKA [I50Y]: -0.006 ± 0.098.
As for SKNWSEDDLQLLIKAVNLFPAGTNSRWEVIANYMNIHSSSGVKRTAKDVRGKA [I50R], the abundance fitness was 0.096 ± 0.06.
Take SKNWSEDDLQLLIKAVNLFPAGTNSRWEVIANYMNIHSSSGVKRTAKDVWGKA [I50W]: the abundance fitness is -0.085 ± 0.078.
SKNWSEDDLQLLIKAVNLFPAGTNSRWEVIANYMNIHSSSGVKRTAKDVAGKA [I50A]: the abundance fitness was 0.085 ± 0.081.
In the case of SKNWSEDDLQLLIKAVNLFPAGTNSRWEVIANYMNIHSSSGVKRTAKDVNGKA [I50N], the abundance fitness was -0.229 ± 0.096.
As to SKNWSEDDLQLLIKAVNLFPAGTNSRWEVIANYMNIHSSSGVKRTAKDVVGKA [I50V], the abundance fitness was 0.03 ± 0.066.
Regarding SKNWSEDDLQLLIKAVNLFPAGTNSRWEVIANYMNIHSSSGVKRTAKDVPGKA [I50P], the abundance fitness was -0.632 ± 0.16.
The same measure for SKNWSEDDLQLLIKAVNLFPAGTNSRWEVIANYMNIHSSSGVKRTAKDVGGKA [I50G]: -0.113 ± 0.07; for SKNWSEDDLQLLIKAVNLFPAGTNSRWEVIANYMNIHSSSGVKRTAKDVDGKA [I50D]: -0.224 ± 0.096; for SKNWSEDDLQLLIKAVNLFPAGTNSRWEVIANYMNIHSSSGVKRTAKDVTGKA [I50T]: -0.267 ± 0.089.
With SKNWSEDDLQLLIKAVNLFPAGTNSRWEVIANYMNIHSSSGVKRTARDVIGKA [K47R], the abundance fitness is -0.056 ± 0.065.
The same measure for SKNWSEDDLQLLIKAVNLFPAGTNSRWEVIANYMNIHSSSGVKRTAFDVIGKA [K47F]: -0.22 ± 0.13; for SKNWSEDDLQLLIKAVNLFPAGTNSRWEVIANYMNIHSSSGVKRTAPDVIGKA [K47P]: -0.133 ± 0.11; for SKNWSEDDLQLLIKAVNLFPAGTNSRWEVIANYMNIHSSSGVKRTASDVIGKA [K47S]: 0.033 ± 0.075.
The same measure for SKNWSEDDLQLLIKAVNLFPAGTNSRWEVIANYMNIHSSSGVKRTANDVIGKA [K47N]: -0.065 ± 0.089.
The same measure for SKNWSEDDLQLLIKAVNLFPAGTNSRWEVIANYMNIHSSSGVKRTAWDVIGKA [K47W]: -0.266 ± 0.089; for SKNWSEDDLQLLIKAVNLFPAGTNSRWEVIANYMNIHSSSGVKRTAYDVIGKA [K47Y]: -0.212 ± 0.11; for SKNWSEDDLQLLIKAVNLFPAGTNSRWEVIANYMNIHSSSGVKRTAGDVIGKA [K47G]: -0.039 ± 0.065.
Take SKNWSEDDLQLLIKAVNLFPAGTNSRWEVIANYMNIHSSSGVKRTAIDVIGKA [K47I]: the abundance fitness is -0.017 ± 0.12.
In the case of SKNWSEDDLQLLIKAVNLFPAGTNSRWEVIANYMNIHSSSGVKRTAVDVIGKA [K47V], the abundance fitness is -0.095 ± 0.072.
Consider SKNWSEDDLQLLIKAVNLFPAGTNSRWEVIANYMNIHSSSGVKRTAQDVIGKA [K47Q], for which the abundance fitness came out at 0.057 ± 0.089.
As to SKNWSEDDLQLLIKAVNLFPAGTNSRWEVIANYMNIHSSSGVKRTALDVIGKA [K47L], the abundance fitness is -0.097 ± 0.065.
Consider SKNWSEDDLQLLIKAVNLFPAGTNSRWEVIANYMNIHSSSGVKRTATDVIGKA [K47T], for which the abundance fitness was 0.08 ± 0.091.
The same measure for SKNWSEDDLQLLIKAVNLFPAGTNSRWEVIANYMNIHSSSGVKRTAMDVIGKA [K47M]: -0.111 ± 0.1.
